# Experimental data published in US20160200813A1 (AbbVie / Abbott, published 2016).
# Where “and” joins values, the source holds several entries; their conditions need not be identical. Equal entries are not always repeated. *1 amine or outer side, *2 acyl side, *3 side chain or, on linkers, in order; H or OH if unused. Bridges are numbered along the chain shown (N, C = ends). Where no end group is shown, it is not given here. Lys(Aoa) = NOCC(=O)NCCCC[C@H](N[*:1])C(=O)[*:2]
# T1: CR1.3 variant cyclic peptide (human, disulfide 1-13)
# T1 peptide: H-CEKDQFQSRAERCIPSVWR-{Lys(Aoa)-NH2}
# T2: CR1 cyclic peptide of human LRP-8 (human, disulfide 1-13)
# T2 construct: also called CR1 peptide; conjugated human LRP-8 CR1 peptide
# T2 peptide: CEKDQFQSRNERCIPSVWR-{Lys(Aoa)-NH2}
# T3: CR1.1 variant cyclic peptide (human, disulfide 1-13)
# T3 peptide: H-CEKDQAQSRNERCIPSVWR-{Lys(Aoa)-NH2}
# T4: CR1.4 variant cyclic peptide (human, disulfide 1-13)
# T4 peptide: H-CEKDQAQARAERCIPSVWR-{Lys(Aoa)-NH2}
# T5: CR1.2 variant cyclic peptide (human, disulfide 1-13)
# T5 peptide: H-CEKDQFQARNERCIPSVWR-{Lys(Aoa)-NH2}
# T6: CR2 cyclic peptide of human LRP-8 (human, disulfide 1-13)
# T6 construct: also called CR2 peptide; conjugated human LRP-8 CR2 peptide
# T6 peptide: CADSDFTSDNGHCIHERWK-{Lys(Aoa)-NH2}
# B1: anti-LRP-8 ML199-11H1.5B2 murine antibody (muFc) (antibody, V domains shown)
# VH: EVQLVESGGDLVKPGGSLKLSCAASRFTFSNYGMSWVRQTPDKRLEWVATISSGGRYTYYPDSVKGRFTISRDNAKNTLYLQMSSLRSEDTAMYYCARDYLYAMDYWGQGTSVTVSS
# VL: DVVMTQTPLSLPVSLGDQASISCRSSQSLVYSNGNTYLHWYLQKPGQSPKVLMYKVSNRFSGVSDRFSGSGSGTDFTLKISRVEAEDLGVYFCSQSTHVPLTFGAGTKLELK
# notes: Mouse Fc form (muFc); also called ML199-11H1-5B2 muFc; anti-LRP-8,11H1.5B2
# B2: chimeric anti-LRP-8 ML199.11H1.5B2 antibody [mu/hu IgG1/k] LALA (antibody, V domains shown)
# VH: EVQLVESGGDLVKPGGSLKLSCAASRFTFSNYGMSWVRQTPDKRLEWVATISSGGRYTYYPDSVKGRFTISRDNAKNTLYLQMSSLRSEDTAMYYCARDYLYAMDYWGQGTSVTVSS
# VL: DVVMTQTPLSLPVSLGDQASISCRSSQSLVYSNGNTYLHWYLQKPGQSPKVLMYKVSNRFSGVSDRFSGSGSGTDFTLKISRVEAEDLGVYFCSQSTHVPLTFGAGTKLELK
# notes: Mouse variable domains on human IgG1/kappa with L234A, L235A (LALA); also called ML199.11H1.5B2 hFc; ML199.11H1.5B2 mu/hu IgG1 m/k
# B3: BGK-7F7 (GENOVAC candidate clone of Table 17) (antibody, V domains shown)
# VH: QVTLKESGPGILQPSQTLSLTCTFSGFSLSTYGLGVGWIRQPSGKGLEWLANIWWDDAKYYNPSLKNRLTISKDTSNNQAFLKIPNVDTADTARYYCARTTKPYYFDYWGQGVMVTVSS
# VL: HFVLAQPNSVSTNLGSTVKLSCKRSTANIGSNYVNWYQQHEGRSPTTLIYRDDRRPDGVPDRFSGSIDRSSNSALLTINNVQTEDEADYFCQSYSSGINIFGGGTKLTVL
# notes: here the candidate from rat immunization before chimerization, tested at dilutions
# Experiments:
# [1] = molecular target: T7, Human LRP-8 (isoform 3) expressed on cells (human, UniProt Q14114 33-963); test: cell-based ECL-MSD, 10 ug/ml Ab, human_LRP-8_HEK293
# T7 construct: also called hLRP-8; huLRP-8
# T7 sequence (Q14114 other isoform, or with tags, fused parts or gaps limits assumed): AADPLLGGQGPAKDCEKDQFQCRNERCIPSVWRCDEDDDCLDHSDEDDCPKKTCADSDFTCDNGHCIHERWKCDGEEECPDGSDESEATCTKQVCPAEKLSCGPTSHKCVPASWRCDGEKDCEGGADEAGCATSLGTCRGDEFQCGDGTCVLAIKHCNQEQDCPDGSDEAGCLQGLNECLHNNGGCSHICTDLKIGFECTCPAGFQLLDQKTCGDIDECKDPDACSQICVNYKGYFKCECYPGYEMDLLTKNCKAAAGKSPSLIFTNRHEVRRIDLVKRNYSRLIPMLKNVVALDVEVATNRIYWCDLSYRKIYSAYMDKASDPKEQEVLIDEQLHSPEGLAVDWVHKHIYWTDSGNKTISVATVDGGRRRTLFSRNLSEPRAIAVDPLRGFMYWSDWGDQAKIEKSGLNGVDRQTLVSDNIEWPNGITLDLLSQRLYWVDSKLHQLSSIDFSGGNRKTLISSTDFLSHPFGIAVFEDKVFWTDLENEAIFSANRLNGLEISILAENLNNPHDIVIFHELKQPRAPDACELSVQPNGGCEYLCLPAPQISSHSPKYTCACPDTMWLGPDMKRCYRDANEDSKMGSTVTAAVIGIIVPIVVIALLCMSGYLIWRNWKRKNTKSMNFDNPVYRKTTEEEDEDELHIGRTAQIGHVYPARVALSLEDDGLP
# Method: (§1) A cell-based ECL-MSD binding assay was used to determine antibody affinity. HEK293 cells overexpressing human, monkey or mouse LRP-8 were added onto MSD 96-well plate (MSD Cat# L15XB-3/L11XB-3) and incubated at 37° C. for one hour. Cells were blocked using 15% FBS (Hyclone, Thermo Scientific Cat# SH300700.03) at RT for 30 minutes with mild agitation. Plates were washed with DPBS three times and Abs or DVD-Ig binding proteins were added to the well. After incubation at RT for one hour, plates were washed with DPBS and goat anti-human or anti-mouse Sulfo TAG (MSD Cat#R32AJ-1) was added. Plates were incubated at RT for one hour, washed with DPBS and immersed in MSD read buffer (MSD Cat#R92TD-2) before reading on a MSD SECTOR Imager 6000. EC50 values were obtained using Xlfit4 software system.
# [2] = molecular target: T7, Human LRP-8 (isoform 3) expressed on …; test: cell-based or functional assay
# [3] = molecular target: T7, Human LRP-8 (isoform 3) expressed on …; test: huLRP-8 cell-based binding
# [4] = molecular target: T8, Cynomolgus monkey LRP-8 expressed on HEK293 cells (cynomolgus monkey); test: cell-based ECL-MSD, 10 ug/ml Ab, cyno-LRP-8-HEK293
# T8 construct: whole, on cells; also called cyno LRP-8; cLRP-8
# Method: as §1
# [5] = molecular target: T8, Cynomolgus monkey LRP-8 expressed on …; test: cell-based binding assay, cynoLRP8
# [6] = molecular target: T7, Human LRP-8 (isoform 3) expressed on …; test: cell-based MSD-ECL binding on cells overexpressing human LRP-8 variant 3 (hLRP8 assay)
# Method: as §1
# [7] = molecular target: T1, CR1.3 variant cyclic peptide; test: ELISA, antibody titrated on coated CR1.3 peptide
# Method: (§2) High binding MSD plates (MSD Cat# L15XB-3/L11XB-3) were coated with 1 μg/ml of CR1 or CR2 peptide overnight at 4° C. The next day, the plate was blocked with 3% MSD blocking buffer (MSD Cat# R93AA-01) for 1 hour at RT. The plates were washed with TTBS buffer (20 mM Tris; 0.5% Tween, 150 mM sodium chloride; pH 7.5) three times and a titer of anti-LRP-8 human Fc Ab was added. After incubating for 1 hour at RT, plate was washed and anti-human SULFO-TAG Ab was added to the plate and incubated for 1 hour. The plates were washed and immersed in MSD read buffer T with surfactant (MSD Cat# R92TC-1) before reading on an MSD SECTOR Imager 6000. Data were obtained and analyzed using a GraphPad Prism 6 software package (GraphPad Software, Inc., La Jolla, Calif.).
# [8] = molecular target: T8, Cynomolgus monkey LRP-8 expressed on …; test: cell-based MSD-ECL binding on cells overexpressing cyno LRP-8 variant 1 (cynoLRP8 assay)
# Method: as §1
# [9] = molecular target: T2, CR1 cyclic peptide of human LRP-8; test: antibody titrated on plates coated with 1 ug/ml CR1 peptide (Example 1.12.2); lower table, column ng/ml
# Method: as §2
# [10] = molecular target: T2, CR1 cyclic peptide of human LRP-8; test: ELISA using CR1 peptide
# [11] = molecular target: T3, CR1.1 variant cyclic peptide; test: ELISA, antibody titrated on coated CR1.1 peptide
# Method: as §2
# [12] = molecular target: T4, CR1.4 variant cyclic peptide; test: BIACORE and direct ELISA
# [13] = molecular target: T5, CR1.2 variant cyclic peptide; test: ELISA, antibody titrated on coated CR1.2 peptide
# Method: as §2
# [14] = molecular target: T8, Cynomolgus monkey LRP-8 expressed on …; test: FACS, cyno LRP8 cells
# [15] = molecular target: T6, CR2 cyclic peptide of human LRP-8; test: antibody titrated on plates coated with 1 ug/ml CR2 peptide (Example 1.12.2); lower table, column ng/ml
# Method: as §2
# [16] = molecular target: T7, Human LRP-8 (isoform 3) expressed on …; test: cell-based binding assay, hLRP8
# [17] = molecular target: T8, Cynomolgus monkey LRP-8 expressed on …; test: cell-based MSD, 1 to 25, cyno-LRP8-HEK293
# [18] = molecular target: T7, Human LRP-8 (isoform 3) expressed on …; test: cell-based MSD, 1 to 125, human_LRP8_HEK293
# [19] = molecular target: T8, Cynomolgus monkey LRP-8 expressed on …; test: cell-based binding on CYNO LRP8-HEK293, supernatant 1:125
# [20] = molecular target: T7, Human LRP-8 (isoform 3) expressed on …; test: cell-based MSD, 1 to 25, human_LRP8_HEK293
# [21] = molecular target: T8, Cynomolgus monkey LRP-8 expressed on …; test: cell-based MSD, 1 to 5, cyno-LRP8-HEK293
# [22] = molecular target: T8, Cynomolgus monkey LRP-8 expressed on …; test: cell-based binding on CYNO LRP8-HEK293, supernatant 1:5
# [23] = molecular target: T7, Human LRP-8 (isoform 3) expressed on …; test: cell-based or functional assay; remark: listed apart in the source
# [24] = molecular target: T8, Cynomolgus monkey LRP-8 expressed on …; test: cell-based MSD, 1 to 125, cyno-LRP8-HEK293
# [25] = molecular target: T8, Cynomolgus monkey LRP-8 expressed on …; test: cell-based binding on CYNO LRP8-HEK293, supernatant 1:25
# [26] = molecular target: T7, Human LRP-8 (isoform 3) expressed on …; test: cell-based MSD, 1 to 5, human_LRP8_HEK293
binder,measurement,setting,value
B1,fold over mIgG control,[1],15.1 fold
same,"Endocytosis, fold over IgG control",[2],1.7 fold
same,"Transcytosis, fold over IgG control",[2],2 fold
same,EC50,[3],0.4 nM
same,fold over mIgG control,[4],7 fold
B2,EC50,[5],0.21 nM
same,EC50,[6],0.0484 µg/mL and 0.32 nM
same,binding result,[7],binds
same,EC50,[8],0.0691 µg/mL and 0.46 nM
same,EC50,[9],0.225 µg/mL
same,OD450,[10],4 OD450
same,binding result,[11],no binding (tested: 10000 ng/ml)
same,binding result,[12],no binding
same,binding result,[13],binds
same,FACS (ratio +/-),[14],141 ratio
same,EC50,[15],0.312 µg/mL
same,EC50,[16],0.22 nM
B3,fold over IgG control,[17],1.9 fold
same,fold over IgG control,[18],5 fold
same,fold over isotype control,[19],1.5 fold
same,fold over IgG control,[20],5.2 fold
same,fold over IgG control,[21],2 fold
same,fold over isotype control,[22],3.23 fold
same,"Endocytosis, fold over-IgG",[23],5.18 fold
same,"Transcytosis, fold over-IgG",[23],2.17 fold
same,fold over IgG control,[24],1.8 fold
same,fold over isotype control,[25],1.86 fold
same,fold over IgG control,[26],5 fold
